Data as given in article PMC3282893.

Molecular target: human IgG1 (solid phase in surface plasmon resonance) (human)
Assay: SPR

Kd: 500 µM
Substance: soluble recombinant FcγRIIa-HR (high-responder, arginine R134 allele of FcγRIIa), glycosylated (from UniProt P12318 37-206) (receptor)
